Results on 2 substances are retold here after paper PMC11341859.

Usually stoichiometry N stands for a count of units in the complex or per binding partner.

Assay [1] addresses LY1 ΔARM fragment (ORF1 with residues 2-45 deleted, C-terminus removed by proteolysis in insect cells) (Betatorquevirus isolate LY1 (TTMV-LY1)). Description: cryo-EM structure; Sf9-derived ΔARM fragment virus-like particles, 0.3 mg/ml on graphene oxide grid, Glacios 200 kV, I1 symmetry, 3.9 Å.
Assay [2] concerns the target LY1 ORF1 ΔC-term (1-609) (Betatorquevirus isolate LY1 (TTMV-LY1)). Description: cryo-EM structure; Expi293-derived ΔC-term virus-like particles, 0.4 mg/ml, Titan Krios 300 kV, 2.69 Å.

As for “LY1 ΔARM fragment (ORF1 with residues 2-45 deleted, C-terminus removed by proteolysis in insect cells) (domain or fragment)”, the stoichiometry N in assay [1] turned out to be 60. “LY1 ORF1 ΔC-term (1-609) (domain or fragment)” gave a stoichiometry N in assay [2] of 60.
